Measurements: publication PMC12170339, “Cryo-EM structure of the NDH–PSI–LHCI supercomplex from Spinacia oleracea” (Nature Structural & Molecular Biology, 2025)

T1: NdhH (S. oleracea, UniProt Q9M3I5 1-393)
T1 construct: NdhH, SubA module of chloroplast NDH, S. oleracea; source: purified from spinach (S. oleracea) leaves as part of the NDH–PSI–LHCI-2 supercomplex
T1 sequence (looked up): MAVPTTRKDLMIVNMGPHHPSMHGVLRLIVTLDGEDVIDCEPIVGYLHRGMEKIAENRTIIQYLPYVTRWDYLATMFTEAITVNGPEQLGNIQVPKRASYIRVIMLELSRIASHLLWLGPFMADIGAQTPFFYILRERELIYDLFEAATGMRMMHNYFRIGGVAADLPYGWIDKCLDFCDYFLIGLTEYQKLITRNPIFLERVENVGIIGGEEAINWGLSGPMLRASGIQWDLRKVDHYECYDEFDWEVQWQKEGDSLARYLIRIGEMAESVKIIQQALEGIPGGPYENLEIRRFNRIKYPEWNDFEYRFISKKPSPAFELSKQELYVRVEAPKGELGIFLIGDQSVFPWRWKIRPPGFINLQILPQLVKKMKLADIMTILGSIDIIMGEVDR

T2: NdhK (S. oleracea, UniProt Q9M3M0 1-227)
T2 construct: NdhK, SubA module of chloroplast NDH, S. oleracea; source: purified from spinach (S. oleracea) leaves as part of the NDH–PSI–LHCI-2 supercomplex
T2 sequence (looked up): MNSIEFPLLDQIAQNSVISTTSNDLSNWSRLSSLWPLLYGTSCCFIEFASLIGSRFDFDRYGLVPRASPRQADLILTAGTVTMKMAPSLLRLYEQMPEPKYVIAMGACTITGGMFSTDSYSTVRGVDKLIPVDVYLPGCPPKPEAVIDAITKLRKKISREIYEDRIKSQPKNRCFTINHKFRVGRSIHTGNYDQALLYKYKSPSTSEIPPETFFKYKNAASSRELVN

B1: NdhA (natural protein, S. oleracea, UniProt Q9M3I6 1-365, looked up)
chain: MIIDTTTTKVQAINSFSRLEFLKEVYETIWMLFPILILVLGITIGVLVIVWLEREISASIQQRIGPEYAGPLGILQALADGTKLLFKENLLPSRGDTYLFSIGPSIAVISILLGYLIIPFGSRLVLADLSIGVFLWIAVSSIAPIGLLMSGYGSNNKYSFLGGLRAAAQSISYEIPLTLCVLSISLLSNSSSTVDIVEAQSKYGFWGWNLWRQPIGFIVFIISSLAECERLPFDLPEAEEELVAGYQTEYSGIKFGLFYVASYLNLLISSLFVTVLYLGGWNLSIPYIFISEFFEINKIDGVFGTTIGIFITLAKTFLFLFIPITTRWTLPRLRMDQLLNLGWKFLLPISLGNLLLTTSSQLFSL
notes: NdhA, SubM module of chloroplast NDH, S. oleracea; also called NhdA; source: purified from spinach (S. oleracea) leaves as part of the NDH–PSI–LHCI-2 supercomplex

Tests used:
Assay in all cases: cryo-EM structure; single-particle cryo-EM of the endogenous NDH–PSI–LHCI-2 supercomplex co-purified from spinach stromal lamellae in t-PCCαM; buffer A: 30 mM HEPES pH 7.8, 2 mM MgCl2, 2 mM KCl, 0.5 mM Na2-EDTA, 100 mM NaCl, 2 mM DTT, 0.04% t-PCCαM; 38,385 particles; 3.0–3.3 Å
[1] = molecular target: NADPH dehydrogenase (NDH) complex (S. oleracea) (UniProt Q9M3I6)
NdhH = molecular target: T1, NdhH; conditions: both partners purified
NdhK = molecular target: T2, NdhK; conditions: both partners purified
NdhA = molecular target: B1; conditions: both partners purified

| Molecule | stoichiometry N (NDH per PSI–LHCI) [1] | binding result (NdhH) | binding result (NdhK) | binding result (NdhA) |
| --- | --- | --- | --- | --- |
| PSI–LHCI-2 (photosystem I–light-harvesting complex I) (from UniProt P06511 1-750; P06512 1-734; P10098 1-81; P12353 51-212; P12355 78-231; P12357 70-167; P22179 50-144; P17228 1-33; P17230 1-44; P14627 1-29; Q41385 48-216) | 1 | – | – | – |
| NdhC (natural protein, S. oleracea, UniProt Q9M3L9 1-120, looked up, NdhC, SubM module of chloroplast NDH, S. oleracea; source: purified from spinach (S. oleracea) leaves as part of the NDH–PSI–LHCI-2 supercomplex) MFLLYEYDIFWAFLIISSVIPILAFLFSGILAPISKGPEKLSSYESGIEPMGDAWLQFRIRYYMFALVFVVFDVETVFLYPWAMSFDILGVSVFIEALIFVLILIVGLVYAWRKGALEWS | – | binds | binds | binds |
| B1 | – | binds | – | – |
